Measurements published in IntAct's records for PubMed 31515488.

B1: Zinc finger protein Aiolos (Homo sapiens), Q9UKT9 (parent)
chain: MEDIQTNAELKSTQEQSVPAESAAVLNDYSLTKSHEMENVDSGEGPANEDEDIGDDSMKVKDEYSERDENVLKSEPMGNAEEPEIPYSYSREYNEYENIKLERHVVSFDSSRPTSGKMNCDVCGLSCISFNVLMVHKRSHTGERPFQCNQCGASFTQKGNLLRHIKLHTGEKPFKCHLCNYACQRRDALTGHLRTHSVEKPYKCEFCGRSYKQRSSLEEHKERCRTFLQSTDPGDTASAEARHIKAEMGSERALVLDRLASNVAKRKSSMPQKFIGEKRHCFDVNYNSSYMYEKESELIQTRMMDQAINNAISYLGAEALRPLVQTPPAPTSEMVPVISSMYPIALTRAEMSNGAPQELEKKSIHLPEKSVPSERGLSPNNSGHDSTDTDSNHEERQNHIYQQNHMVLSRARNGMPLLKEVPRSYELLKPPPICPRDSVKVINKEGEVMDVYRCDHCRVLFLDYVMFTIHMGCHGFRDPFECNMCGYRSHDRYEFSSHIARGEHRALLK
partner: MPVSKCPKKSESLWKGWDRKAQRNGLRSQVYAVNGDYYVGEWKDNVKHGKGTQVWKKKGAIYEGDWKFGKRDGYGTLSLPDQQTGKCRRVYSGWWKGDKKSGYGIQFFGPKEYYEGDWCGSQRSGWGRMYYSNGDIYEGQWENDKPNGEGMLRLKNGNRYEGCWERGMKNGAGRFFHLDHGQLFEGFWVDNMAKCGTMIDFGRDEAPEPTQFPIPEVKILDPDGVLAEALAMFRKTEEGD
B2: Interleukin-1 receptor-associated kinase 4 (Homo sapiens), Q9NWZ3 (parent)
chain: MNKPITPSTYVRCLNVGLIRKLSDFIDPQEGWKKLAVAIKKPSGDDRYNQFHIRRFEALLQTGKSPTSELLFDWGTTNCTVGDLVDLLIQNEFFAPASLLLPDAVPKTANTLPSKEAITVQQKQMPFCDKDRTLMTPVQNLEQSYMPPDSSSPENKSLEVSDTRFHSFSFYELKNVTNNFDERPISVGGNKMGEGGFGVVYKGYVNNTTVAVKKLAAMVDITTEELKQQFDQEIKVMAKCQHENLVELLGFSSDGDDLCLVYVYMPNGSLLDRLSCLDGTPPLSWHMRCKIAQGAANGINFLHENHHIHRDIKSANILLDEAFTAKISDFGLARASEKFAQTVMTSRIVGTTAYMAPEALRGEITPKSDIYSFGVVLLEIITGLPAVDEHREPQLLLDIKEEIEDEEKTIEDYIDKKMNDADSTSVEAMYSVASQCLHEKKNKRPDIKKVQQLLQEMTAS
B3: Microtubule-associated tumor suppressor candidate 2 (Homo sapiens), Q5JR59-3 (parent)
chain: MGHCCCKPYNCLQCLDKTNESALVKEKELSIELANIRDEVAFHTAKCEKLQKEKEELERRFEDEVKRLGWQQQAELQELEERLQLQFEAEMARLQEEHGDQLLSIRCQHQEQVEDLTASHDAALLEMENNHTVAITILQDDHDHKVQELMSTHELEKKELEENFEKLRLSLQDQVDTLTFQSQSLRDRARRFEEALRKNTEEQLEIALAPYQHLEEDMKSLKQVLEMKNQQIHEQEKKILELEKLAEKNIILEEKIQVLQQQNEDLKARIDQNTVVTRQLSEENANLQEYVEKETQEKKRLSRTNEELLWKLQTGDPTSPIKLSPTSPVYRGSSSGPSSPARVSTTPR
partner: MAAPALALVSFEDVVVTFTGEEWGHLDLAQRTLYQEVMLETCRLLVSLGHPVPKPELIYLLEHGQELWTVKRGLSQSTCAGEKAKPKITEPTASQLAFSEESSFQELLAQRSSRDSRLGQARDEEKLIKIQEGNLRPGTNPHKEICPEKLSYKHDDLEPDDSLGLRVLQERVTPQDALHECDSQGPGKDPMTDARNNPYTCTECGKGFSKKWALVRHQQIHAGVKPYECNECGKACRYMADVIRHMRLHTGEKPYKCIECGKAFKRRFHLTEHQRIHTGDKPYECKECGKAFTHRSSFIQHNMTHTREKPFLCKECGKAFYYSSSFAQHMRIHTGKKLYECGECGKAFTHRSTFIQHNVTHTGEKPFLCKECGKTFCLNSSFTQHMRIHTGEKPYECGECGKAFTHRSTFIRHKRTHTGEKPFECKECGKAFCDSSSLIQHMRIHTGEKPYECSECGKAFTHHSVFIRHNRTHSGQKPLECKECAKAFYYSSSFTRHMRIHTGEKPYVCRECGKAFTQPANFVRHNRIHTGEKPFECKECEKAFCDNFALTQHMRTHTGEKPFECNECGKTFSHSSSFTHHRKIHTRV
B4: F-BAR domain only protein 1 (Homo sapiens), O14526 (parent)
chain: MSYFGEHFWGEKNHGFEVLYHSVKQGPISTKELADFIRERATIEETYSKAMAKLSKLASNGTPMGTFAPLWEVFRVSSDKLALCHLELTRKLQDLIKDVLRYGEEQLKTHKKCKEEVVSTLDAVQVLSGVSQLLPKSRENYLNRCMDQERLRRESTSQKEMDKAETKTKKAAESLRRSVEKYNSARADFEQKMLDSALRFQAMEETHLRHMKALLGSYAHSVEDTHVQIGQVHEEFKQNIENVSVEMLLRKFAESKGTGREKPGPLDFEAYSAAALQEAMKRLRGAKAFRLPGLSRREREPEPPAAVDFLEPDSGTCPEVDEEGFTVRPDVTQNSTAEPSRFSSSDSDFDDEEPRKFYVHIKPAPARAPACSPEAAAAQLRATAGSLILPPGPGGTMKRHSSRDAAGKPQRPRSAPRTSSCAERLQSEEQVSKNLFGPPLESAFDHEDFTGSSSLGFTSSPSPFSSSSPENVEDSGLDSPSHAAPGPSPDSWVPRPGTPQSPPSCRAPPPEARGIRAPPLPDSPQPLASSPGPWGLEALAGGDLMPAPADPTAREGLAAPPRRLRSRKVSCPLTRSNGDLSRSLSPSPLGSSAASTALERPSFLSQTGHGVSRGPSPVVLGSQDALPIATAFTEYVHAYFRGHSPSCLARVTGELTMTFPAGIVRVFSGTPPPPVLSFRLVHTTAIEHFQPNADLLFSDPSQSDPETKDFWLNMAALTEALQRQAEQNPTASYYNVVLLRYQFSRPGPQSVPLQLSAHWQCGATLTQVSVEYGYRPGATAVPTPLTNVQILLPVGEPVTNVRLQPAATWNLEEKRLTWRLPDVSEAGGSGRLSASWEPLSGPSTPSPVAAQFTSEGTTLSGVDLELVGSGYRMSLVKRRFATGMYLVSC
partner: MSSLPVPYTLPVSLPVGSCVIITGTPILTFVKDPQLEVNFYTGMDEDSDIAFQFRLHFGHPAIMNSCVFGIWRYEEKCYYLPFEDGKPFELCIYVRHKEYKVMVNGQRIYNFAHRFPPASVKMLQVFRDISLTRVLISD

Variants of: B1
Conditions: with morn3_human MORN3, Q6PF18

effect of a mutation on the interaction | Variant
with no effect | N119D
with no effect | A24V

Variants of: B2
Conditions: with myd88_human MYD88, Q99836
Sequence of myd88_human MYD88, Q99836 (Q99836 whole entry): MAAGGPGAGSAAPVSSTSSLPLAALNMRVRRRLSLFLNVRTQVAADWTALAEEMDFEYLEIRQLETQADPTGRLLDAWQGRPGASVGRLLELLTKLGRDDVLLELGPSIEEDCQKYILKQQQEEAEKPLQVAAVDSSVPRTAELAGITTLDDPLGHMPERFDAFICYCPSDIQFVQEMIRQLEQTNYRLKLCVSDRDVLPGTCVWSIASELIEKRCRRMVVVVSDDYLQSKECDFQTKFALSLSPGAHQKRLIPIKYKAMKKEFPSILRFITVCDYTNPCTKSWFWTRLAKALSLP

effect of a mutation on the interaction | Variant
disrupting interaction strength | MNKPITPSTYVHCLNVGLIRKLSDFIDPQEGWKKLAVAIKKPSGDDRYNQFHIRRFEALLQTGKSPTSELLFDWGTTNCTVGDLVDLLIQNEFFAPASLLLPDAVPKTANTLPSKEAITVQQKQMPFCDKDRTLMTPVQNLEQSYMPPDSSSPENKSLEVSDTRFHSFSFYELKNVTNNFDERPISVGGNKMGEGGFGVVYKGYVNNTTVAVKKLAAMVDITTEELKQQFDQEIKVMAKCQHENLVELLGFSSDGDDLCLVYVYMPNGSLLDRLSCLDGTPPLSWHMRCKIAQGAANGINFLHENHHIHRDIKSANILLDEAFTAKISDFGLARASEKFAQTVMTSRIVGTTAYMAPEALRGEITPKSDIYSFGVVLLEIITGLPAVDEHREPQLLLDIKEEIEDEEKTIEDYIDKKMNDADSTSVEAMYSVASQCLHEKKNKRPDIKKVQQLLQEMTAS [R12H]
with no effect | MNKPITPSTYVRCLNVGLIWKLSDFIDPQEGWKKLAVAIKKPSGDDRYNQFHIRRFEALLQTGKSPTSELLFDWGTTNCTVGDLVDLLIQNEFFAPASLLLPDAVPKTANTLPSKEAITVQQKQMPFCDKDRTLMTPVQNLEQSYMPPDSSSPENKSLEVSDTRFHSFSFYELKNVTNNFDERPISVGGNKMGEGGFGVVYKGYVNNTTVAVKKLAAMVDITTEELKQQFDQEIKVMAKCQHENLVELLGFSSDGDDLCLVYVYMPNGSLLDRLSCLDGTPPLSWHMRCKIAQGAANGINFLHENHHIHRDIKSANILLDEAFTAKISDFGLARASEKFAQTVMTSRIVGTTAYMAPEALRGEITPKSDIYSFGVVLLEIITGLPAVDEHREPQLLLDIKEEIEDEEKTIEDYIDKKMNDADSTSVEAMYSVASQCLHEKKNKRPDIKKVQQLLQEMTAS [R20W]

Variants of: B3
Conditions: with zn599_human ZNF599, Q96NL3

effect of a mutation on the interaction | Variant
with no effect | MGHCCCKPYNCLQCLDKTNESALVKEKELSIELANIRDEVAFHTAKCEKLQKEKEELERRFEDEVKRLGWQQQAELQELEERLQLQFEVEMARLQEEHGDQLLSIRCQHQEQVEDLTASHDAALLEMENNHTVAITILQDDHDHKVQELMSTHELEKKELEENFEKLRLSLQDQVDTLTFQSQSLRDRARRFEEALRKNTEEQLEIALAPYQHLEEDMKSLKQVLEMKNQQIHEQEKKILELEKLAEKNIILEEKIQVLQQQNEDLKARIDQNTVVTRQLSEENANLQEYVEKETQEKKRLSRTNEELLWKLQTGDPTSPIKLSPTSPVYRGSSSGPSSPARVSTTPR [A89V]

Variants of: B4
Conditions: with ppl13_human LGALS14, Q8TCE9

effect of a mutation on the interaction | Variant
with no effect | E423G
